{
  "source": "patent EP2857035B1",
  "key": {"HLA-A3 (human)": {"target": "HLA-A3 (human)", "assay": "assembly assay, TAP-deficient cell lysate, W6/32 IP, IEF gel"}, "HLA-A2 (human) [1]": {"target": "HLA-A2 (human)", "assay": "assembly assay (HLA stabilisation), T2 cell lysate, IP, IEF gel"}, "HLA-A2 (human) [2]": {"target": "HLA-A2 (human)", "assay": "assembly assay, TAP-deficient cell lysate, W6/32 IP, IEF gel"}, "HLA-A1 (human)": {"target": "HLA-A1 (human)", "assay": "assembly assay, TAP-deficient cell lysate, W6/32 IP, IEF gel"}},
  "data": [
    {"substance": "Influenza A, nucleoprotein 265-273 (peptide)", "values": [
      {"measurement": "C50", "setting": "HLA-A3 (human)", "result": 0.1, "unit": "µM"}
    ]},
    {"substance": "C1, HIV-1 pol476-484 (peptide)", "values": [
      {"measurement": "C50", "setting": "HLA-A2 (human) [1]", "result": 0.7, "unit": "µM"},
      {"measurement": "C50", "setting": "HLA-A2 (human) [2]", "result": 0.2, "unit": "µM"}
    ]},
    {"substance": "C1, Influenza A, PB1 591-599 (peptide)", "values": [
      {"measurement": "C50", "setting": "HLA-A1 (human)", "result": 0.8, "unit": "µM"}
    ]}
  ]
}
